Results as given in PMC8191761, “The three-way junction structure of the HIV-1 PBS-segment binds host enzyme important for viral infectivity”.

Molecular target: RHA (DHX9/RNA helicase A) (UniProt Q08211 1-1270)
Assay: EMSA; 0.5 uM RNA, 0-4 uM RHA; preferred over TAR-PolyA; EMSA: binding buffer A, 10 mM Tris-HCl pH 7.5, 140 mM KCl, 10 mM KCl (so in the source); probably NaCl), 1 mM MgCl2, 37 C 10 min, 1.5% agarose; ITC: binding buffer B
Details: protein: recombinant; tags: N-terminal His6 and Mocr tags; label: site-specific 2H labels in some NMR samples; three-way junction

RHA (DHX9/RNA helicase A), sequence (Q08211 whole entry): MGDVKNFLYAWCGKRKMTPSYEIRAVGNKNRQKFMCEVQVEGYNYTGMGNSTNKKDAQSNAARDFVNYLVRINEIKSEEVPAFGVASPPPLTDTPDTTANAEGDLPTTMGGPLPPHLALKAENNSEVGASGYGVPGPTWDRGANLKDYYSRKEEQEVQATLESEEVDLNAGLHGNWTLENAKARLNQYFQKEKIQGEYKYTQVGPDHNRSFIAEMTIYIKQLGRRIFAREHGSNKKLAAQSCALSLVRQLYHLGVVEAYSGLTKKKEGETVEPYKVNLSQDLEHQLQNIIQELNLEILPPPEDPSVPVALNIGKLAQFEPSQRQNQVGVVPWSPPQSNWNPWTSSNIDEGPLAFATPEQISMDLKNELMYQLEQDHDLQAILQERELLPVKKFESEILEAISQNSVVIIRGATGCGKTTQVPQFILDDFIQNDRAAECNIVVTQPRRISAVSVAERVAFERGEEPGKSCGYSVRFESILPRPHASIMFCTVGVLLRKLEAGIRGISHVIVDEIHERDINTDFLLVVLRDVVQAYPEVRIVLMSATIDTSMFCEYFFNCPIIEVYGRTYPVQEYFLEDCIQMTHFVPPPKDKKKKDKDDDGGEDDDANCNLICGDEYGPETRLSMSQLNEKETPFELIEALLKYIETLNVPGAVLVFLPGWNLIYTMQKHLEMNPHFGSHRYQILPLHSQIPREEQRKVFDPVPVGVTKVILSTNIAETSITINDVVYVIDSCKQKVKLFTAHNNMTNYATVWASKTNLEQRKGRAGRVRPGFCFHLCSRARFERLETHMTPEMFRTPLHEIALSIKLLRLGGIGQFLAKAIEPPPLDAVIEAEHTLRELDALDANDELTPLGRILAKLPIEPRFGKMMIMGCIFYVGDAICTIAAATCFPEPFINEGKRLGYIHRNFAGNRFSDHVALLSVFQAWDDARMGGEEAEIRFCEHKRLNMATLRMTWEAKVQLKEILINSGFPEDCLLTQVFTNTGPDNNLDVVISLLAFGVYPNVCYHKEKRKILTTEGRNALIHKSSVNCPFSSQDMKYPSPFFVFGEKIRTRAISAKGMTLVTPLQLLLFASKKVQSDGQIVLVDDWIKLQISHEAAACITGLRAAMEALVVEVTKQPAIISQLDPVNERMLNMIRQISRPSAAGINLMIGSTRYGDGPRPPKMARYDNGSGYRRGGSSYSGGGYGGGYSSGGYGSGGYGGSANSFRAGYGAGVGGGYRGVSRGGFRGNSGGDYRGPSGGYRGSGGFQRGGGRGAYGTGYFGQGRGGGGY

B1: PBS-segment (nt 125-223) (structured_RNA)
RNA: GGCUCUGGUAACUAGAGAUCCCUCAGACCCUUUUAGUCAGUGUGGAAAAUCUCUAGCAGUGGCGCCCGAACAGGGACUUGAAAGCGAAAGUAAAGCCAGAGCC
binding result: binds
